Our source for the ratio to parent values is publication PMC9587022 (2022).

First the molecules themselves.
B1: HA-tagged UL97, wild type, full length (pCGN-HA-UL97) [human cytomegalovirus (HCMV)] / Flag-tagged 14-3-3 ε [human] (parent complex)
chain 1: MSSALRSRARSASLGTTTQGWDPPPLRRPSRARRRQWMREAAQAAAQAAVQAAQAAAAQVAQAHVDENEVVDLMADEAGGGVTTLTTLSSVSTTTVLGHATFSACVRSDVMRDGEKEDAASDKENLRRPVVPSTSSRGSAASGDGYHGLRCRETSAMWSFEYDRDGDVTSVRRALFTGGSDPSDSVSGVRGGRKRPLRPPLVSLARTPLCRRRVGGVDAVLEENDVELRAESQDSAVASGPGRIPQPLSGSSGEESATAVEADSTSHDDVHCTCSNDQIITTSIRGLTCDPRMFLRLTHPELCELSISYLLVYVPKEDDFCHKICYAVDMSDESYRLGQGSFGEVWPLDRYRVVKVARKHSETVLTVWMSGLIRTRAAGEQQQPPSLVGTGVHRGLLTATGCCLLHNVTVHRRFHTDMFHHDQWKLACIDSYRRAFCTLADAIKFLNHQCRVCHFDITPMNVLIDVNPHNPSEIVRAALCDYSLSEPYPDYNERCVAVFQETGTARRIPNCSHRLRECYHPAFRPMPLQKLLICDPHARFPVAGLRRYCMSELSALGNVLGFCLMRLLDRRGLDEVRMGTEALLFKHAGAACRALENGKLTHCSDACLLILAAQMSYGACLLGEHGAALVSHTLRFVEAKMSSCRVRAFRRFYHECSQTMLHEYVRKNVERLLATSDGLYLYNAFRRTTSIICEEDLDGDCRQLFPE
chain 2: MDDREDLVYQAKLAEQAERYDEMVESMKKVAGMDVELTVEERNLLSVAYKNVIGARRASWRIISSIEQKEENKGGEDKLKMIREYRQMVETELKLICCDILDVLDKHLIPAANTGESKVFYYKMKGDYHRYLAEFATGNDRKEAAENSLVAYKAASDIAMTELPPTHPIRLGLALNFSVFYYEILNSPDRACRLAKAAFDDAIAELDTLSEESYKDSTLIMQLLRDNLTLWTSDMQGDGEEQNKEALQDVEDENQ
B2: HA-tagged UL97, wild type, full length (pCGN-HA-UL97) [human cytomegalovirus (HCMV)] / Flag-tagged 14-3-3 γ [human] (parent complex)
chain 1: B1 chain 1
chain 2: MVDREQLVQKARLAEQAERYDDMAAAMKNVTELNEPLSNEERNLLSVAYKNVVGARRSSWRVISSIEQKTSADGNEKKIEMVRAYREKIEKELEAVCQDVLSLLDNYLIKNCSETQYESKVFYLKMKGDYYRYLAEVATGEKRATVVESSEKAYSEAHEISKEHMQPTHPIRLGLALNYSVFYYEIQNAPEQACHLAKTAFDDAIAELDTLNEDSYKDSTLIMQLLRDNLTLWTSDQQDDDGGEGNN
B3: HA-tagged UL97, wild type, full length (pCGN-HA-UL97) [human cytomegalovirus (HCMV)] / Flag-tagged 14-3-3 θ [human] (parent complex)
chain 1: B1 chain 1
chain 2: MEKTELIQKAKLAEQAERYDDMATCMKAVTEQGAELSNEERNLLSVAYKNVVGGRRSAWRVISSIEQKTDTSDKKLQLIKDYREKVESELRSICTTVLELLDKYLIANATNPESKVFYLKMKGDYFRYLAEVACGDDRKQTIDNSQGAYQEAFDISKKEMQPTHPIRLGLALNFSVFYYEILNNPELACTLAKTAFDEAIAELDTLNEDSYKDSTLIMQLLRDNLTLWTSDSAGEECDAAEGAEN
B4: HA-tagged UL97, wild type, full length (pCGN-HA-UL97) [human cytomegalovirus (HCMV)] / Flag-tagged 14-3-3 η [human] (parent complex)
chain 1: B1 chain 1
chain 2: MGDREQLLQRARLAEQAERYDDMASAMKAVTELNEPLSNEDRNLLSVAYKNVVGARRSSWRVISSIEQKTMADGNEKKLEKVKAYREKIEKELETVCNDVLSLLDKFLIKNCNDFQYESKVFYLKMKGDYYRYLAEVASGEKKNSVVEASEAAYKEAFEISKEQMQPTHPIRLGLALNFSVFYYEIQNAPEQACLLAKQAFDDAIAELDTLNEDSYKDSTLIMQLLRDNLTLWTSDQQDEEAGEGN
B5: HA-tagged UL97, wild type, full length (pCGN-HA-UL97) [human cytomegalovirus (HCMV)] / Flag-tagged 14-3-3 β [human] (parent complex)
chain 1: B1 chain 1
chain 2: MTMDKSELVQKAKLAEQAERYDDMAAAMKAVTEQGHELSNEERNLLSVAYKNVVGARRSSWRVISSIEQKTERNEKKQQMGKEYREKIEAELQDICNDVLELLDKYLIPNATQPESKVFYLKMKGDYFRYLSEVASGDNKQTTVSNSQQAYQEAFEISKKEMQPTHPIRLGLALNFSVFYYEILNSPEKACSLAKTAFDEAIAELDTLNEESYKDSTLIMQLLRDNLTLWTSENQGDEGDAGEGEN

Variants of B1 are the subject of one test. Nature of the test: co-immunoprecipitation (IP anti-HA, Western blot quantification); U-2 OS cells; WT UL97 0.6 μg, mutant 1.2 μg expression vector; 1 μg Flag-14-3-3 plasmid; read off a plot. In general terms: Immunoblotting shows a protein as a band on a membrane.
chain 1 K355Q: the ratio to parent is about 0.42.
The same measure, in the same setting: the value for chain 1 S13A was about 0.06.

The variants in a further test derive from B2. The test is described as above.
Regarding chain 1 K355Q, the ratio to parent was about 0.62.
Take chain 1 S13A: the ratio to parent is about 0.07.

In another test the parent is B3. The description is as above.
As for chain 1 K355Q, the ratio to parent is about 0.2.
chain 1 S13A: the ratio to parent was about 0.05.

Another test covers variants of B4. The test is described as above.
Regarding chain 1 K355Q, the ratio to parent is about 0.32.
The same measure, in the same setting: the value for chain 1 S13A was about 0.17.

The variants in another test derive from B5. The test is described as above.
For the variant chain 1 S13A, the ratio to parent was about 0.14.
Regarding chain 1 K355Q, the ratio to parent is about 0.45.
